According to US20170165322A1 (CASE WESTERN RESERVE UNIVERSITY, published 2017):

Target: T1, Fc control (Fc fusion partner alone) (human, UniProt P01857-1 100-330 = IgG part, limits assumed)
T1 construct: domain: Fc; Control protein, 'prepared as described previously'
Assay: in vivo homing; anti-human Fc immunofluorescence on frozen sections of urethane-induced mouse lung tumors, 2 h after i.p. injection
Method: First, we tested if systemically administered ephrin-A1-Fc could home to urethane-induced lung tumors that overexpress EphA2. Lung tumors were induced in wild type mice with urethane. Twenty-five weeks later, mice were injected i.p. with 5 μg/g ephrin-A1-Fc. Fc fusion partner alone was used as control. Two hours after injection, mice were sacrificed, and tumors were dissected out; frozen sections were subject to immunofluorescence staining to detect whether there was a selective homing of ephrin-A1-Fc to tumor tissues relative to control Fc. […] Both FITC-conjugated donkey anti-Fc and Texas-Red-conjugated goat anti-human Fc antibodies yielded similar patterns of selective tumor homing.

B1: EphA2 kinase of mouse (urethane-induced lung tumors, primary keratinocytes, MEF, mouse lung tumor cell lines) (receptor, UniProt Q03145 26-977, looked up)
chain: KEVVLLDFAAMKGELGWLTHPYGKGWDLMQNIMDDMPIYMYSVCNVVSGDQDNWLRTNWVYREEAERIFIELKFTVRDCNSFPGGASSCKETFNLYYAESDVDYGTNFQKRQFTKIDTIAPDEITVSSDFEARNVKLNVEERMVGPLTRKGFYLAFQDIGACVALLSVRVYYKKCPEMLQSLARFPETIAVAVSDTQPLATVAGTCVDHAVVPYGGEGPLMHCTVDGEWLVPIGQCLCQEGYEKVEDACRACSPGFFKSEASESPCLECPEHTLPSTEGATSCQCEEGYFRAPEDPLSMSCTRPPSAPNYLTAIGMGAKVELRWTAPKDTGGRQDIVYSVTCEQCWPESGECGPCEASVRYSEPPHALTRTSVTVSDLEPHMNYTFAVEARNGVSGLVTSRSFRTASVSINQTEPPKVRLEDRSTTSLSVTWSIPVSQQSRVWKYEVTYRKKGDANSYNVRRTEGFSVTLDDLAPDTTYLVQVQALTQEGQGAGSKVHEFQTLSTEGSANMAVIGGVAVGVVLLLVLAGVGLFIHRRRRNLRARQSSEDVRFSKSEQLKPLKTYVDPHTYEDPNQAVLKFTTEIHPSCVARQKVIGAGEFGEVYKGTLKASSGKKEIPVAIKTLKAGYTEKQRVDFLSEASIMGQFSHHNIIRLEGVVSKYKPMMIITEYMENGALDKFLREKDGEFSVLQLVGMLRGIASGMKYLANMNYVHRDLAARNILVNSNLVCKVSDFGLSRVLEDDPEATYTTSGGKIPIRWTAPEAISYRKFTSASDVWSYGIVMWEVMTYGERPYWELSNHEVMKAINDGFRLPTPMDCPSAIYQLMMQCWQQERSRRPKFADIVSILDKLIRAPDSLKTLADFDPRVSIRLPSTSGSEGVPFRTVSEWLESIKMQQYTEHFMVAGYTAIEKVVQMSNEDIKRIGVRLPGHQKRIAYSLLGLKDQVNTVGIPI
notes: whole, on cells
binding result: no binding (tested: 2.5 µg/ml Fc control (i.p.))
